# According to article PMC5316852:
# Target: NavMs prokaryotic sodium channel, wild type, full-length construct (Magnetococcus marinus (Magnetococcus sp. strain MC-1)) (UniProt A0L5S6)
# Test: crystal structure; sitting drop, 0.05 M NaCl, 0.1 M MES pH 6.5, 37.8% v/v PEG 400, 4% ethylene glycol; protein purified in HEGA-10; molecular replacement with NavAb (PDB 3RVY)
substance,measurement,value
"NavMs prokaryotic sodium channel, wild type, full-length construct (from UniProt A0L5S6 1-274) (natural protein)",stoichiometry N,4
